Laboratory results as given in the nanobody polyreactivity screen of Harvey et al. (2022).

Assay: yeast display, Sf9 membrane polyspecificity reagent, FACS + sequencing; frameworks hold sequencing errors
How it was run: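 Nanobodies came from a synthetic yeast display library in Saccharomyces cerevisiae BJ5465, induced with galactose for 36–48 hours and stained for 1 hour at 4 °C with 10% biotinylated, detergent-solubilized Sf9 membrane reagent. Cells were enriched on streptavidin microbeads and then FACS-sorted, with low and high (top ~1%) gates set on anti-HA fluorescence for expression and streptavidin fluorescence for reagent binding. Each polyreactivity label reflects the gate a clone came from. Genes were amplified by colony PCR, sequenced by MiSeq 2 × 250 and filtered by CDR length.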

Row | Sequence | polyreactivity (PSR sort gate)
1 | QVQLVESGGGLVQAGGSLRLSCAASGSTFRKNAMGWYRQAPGKERELVASISISGGRTNYADSVKGRFTISRDNAKNTVYLQMNSLKPEDTAVYYCAAGYPWYQLPRPLEYYYWGQGTQVTVSS | high polyreactivity
2 | QVQLVESGGGLVQAGGSLRLSCAASGSTFRKYAMGWYRQAPGKERELVAAISKSGGSTYYADSVKGRFTISRDNAKNTVYLQMNSLKPEDTAVYYCNARKRTKLSYPKFDYWGQGTQVTVSS | high polyreactivity
3 | QVQLVESGGGLVQAGGSLRLSCAASGSTFRLYAMGWYRPAPGKERELVAGISRTGTSTYYADSVKGRFTISRDNAKNTVYLQMNSLKPEDTAVYYCAAVRYWSDYDYWGQGTQVTVSS | high polyreactivity
4 | QVQLVESGGGLVQAGGSLRLSCAASGSTFRLYPMGWYRQAPGKERELVAAISRSGGSTYYADSVKGRFTISRDNAKNTVYLQMNRLKPEDTAVYYCAKRRPLYAHPDDYWGQGTQVTVSS | low polyreactivity
5 | QVQLVESGGGLVQAGGSLRLSCAASGSTFRPNAMGWYRQAPGKERELVAAINRGGRTNYADSVKGRFTISRDNAKNTVYLQMISLKPEDTAVYYCAAYIAGRYGARGYDYWGQGTQVTVSS | high polyreactivity
6 | QVQLVESGGGLVQAGGSLRLSCAASGSTFRQNAMGWYRQAPGKERELVAAISSIGDSTNYADSVKGRFTISRDNAKNTVYLQMNSLKPEDTAVYYCAARTVQQRRRLYYWGQGTQVTVSS | high polyreactivity
7 | QVQLVESGGGLVQAGGSLRLSCAASGSTFRQYAMGWYRQEPGKERELVAAITWRGDNTYYADSVKGRFTISRDNAKNTVYLQMNSLKPEDTAVYYCAAEYTVYVTDWYDYYYWGQGTQVTVSS | low polyreactivity
8 | QVQLVESGGGLVQAGGSLRLSCAASGSTFRRKVMGGYRQAPGKERELVASIRSGGTTNYADSVKGRFTISRDNAKNTVYLQMNSLKPEDTAVYYCNKRLFWYRHYYYLGQGTQVTVSS | high polyreactivity
9 | QVQLVESGGGLVQAGGSLRLSCAASGSTFRRNAMGWYRQAPGKERELVAAISRRGGSTYYADSVKGRFTISRDNAKNTVYLQMNSLKPEDTAVYYCAADNTQVRPKYDYWGQGTQVTVSS | high polyreactivity
10 | QVQLVESGGGLVQAGGSLRLSCAASGSTFRRNAMGWYRQAPGKERELVAAISTSGGTTYYADSVKGRFTISRDNAKNTVYLQMNSLKPEDTAVYYCNKGGISGRDYWGLGTQVTVSS | high polyreactivity
11 | QVQLVESGGGLVQAGGSLRLSCAASGSTFRRNAMGWYRQAPGKERELVARISYRGGSTYYADSVKGRFTISRDNAKNTVYLQMNSLKPEDTAVYYCAARVYGVPEYDYWGQGTQVTVSS | low polyreactivity
12 | QVQLVESGGGLVQAGGSLRLSCAASGSTFRRNDMGWYRQAPGKERELVAAITSGGITNYADSVKGRFTISRDNAKNTVYLQMNSLKPEDTAVYYCNKDSDLHHYHTEFDYWGQGTQVTVSS | low polyreactivity
13 | QVQLVESGGGLVQAGGSLRLSCAASGSTFRRNTMGWYREAPGKEREFVAALSRRGGSTYYADSVKGRFTISRDNAKNTVYFQMNRLKPEDTGVYYCAAPGLSRLYNVYYWPYDYWGQGTQVTVSS | high polyreactivity
14 | QVQLVESGGGLVQAGGSLRLSCAASGSTFRRYAMGGYRQAPGKERELVAAISRSGGTTYYADSVKGRFTISRDNAKNTVYLQMNSLKPEDTAVYYCNARYPVVRYDYWGQGTQVTVSS | high polyreactivity
15 | QVQLVESGGGLVQAGGSLRLSCAASGSTFRRYAMGWYRQAPGKERELVAAISSGGSTYYADSVKGRFTISRDNAKNTVYLQMNSLKPEDTALYYCAKRPLKRQIPAVGYDYWGQGTQVTVSS | high polyreactivity
16 | QVQLVESGGGLVQAGGSLRLSCAASGSTFRRYAMGWYRQAPGKERELVAAISWSGGSTYYADSVKGRFTISRDNAKNTVYLQMNSLKPEDTAVYYCAARGVTSYWQDYDYWGQGTQVTVSS | low polyreactivity
17 | QVQLVESGGGLVQAGGSLRLSCAASGSTFRRYAMGWYRQAPGKERELVAAITRRGGSTYYADSVKGRFTISRDNAKNTVYLQMNSLKPEDTAVYYCNAVPVVRAGHGYDSWGQGTQVTVSS | high polyreactivity
18 | QVQLVESGGGLVQAGGSLRLSCAASGSTFRRYAMGWYRQAPGKERELVAAITTNGGSTYYADSVKGRFTISRDNAKNTVYLQMNSLKPEDTAVYYCNARWPYRQRGYDYWGQGTQVTVSS | high polyreactivity
19 | QVQLVESGGGLVQAGGSLRLSCAASGSTFRRYAMGWYRQAPGKERELVADIRGIGGSTYYADSVKGRFTISRDNAKNTVYLQMNSLKPEDTAVYYCNTSTLGGYYWGQGTQVTVSS | low polyreactivity
20 | QVQLVESGGGLVQAGGSLRLSCAASGSTFRRYAMGWYRQAPGKERELVAGISYSGGRTYYADSVKGRFTISRDNAKNTVYLQMNSLKPEDTAVYYCAAKSFPSVRHHENYYWGQGTQVTVSS | high polyreactivity
21 | QVQLVESGGGLVQAGGSLRLSCAASGSTFRRYARGWYRQAPGKERELVAAISTRGGSTYYADSVKGRFTISRDNAKNTVYLQMNSLKPEDTAVYYCAADEPKYTSSSSRRYGYWGQGTQVTVSS | high polyreactivity

Row | Sequence | polyreactivity (PSR sort gate)
22 | QVQLVESGGGLVQAGGSLRLSCAASGSTFRSNAMGWYRQAPGKERELVAAITYSGGRTYYADSVKGRFTFSRDNAKNTVYLQMNSLIPEDTAVYYCAKVGWSRRYYYWGQGTQVTVSS | high polyreactivity
23 | QVQLVESGGGLVQAGGSLRLSCAASGSTFRSYTMGWYRHAPGKEMELVARISRSGGSTYYADSVKGRFTISRDNAKNTVYLQMNSLKPEDTAVYYCAALYYVKPGQRYDYWGQGTQVTVSS | high polyreactivity
24 | QVQLVESGGGLVQAGGSLRLSCAASGSTFRSYTMGWYRQAPGKERELVATIDWSAGNTRYADSVKGRFTISRDNAKNTVYLQMNSLKPEDTAVYYCNKDAGLWVSGTLYYWGQGTQVTVSS | low polyreactivity
25 | QVQLVESGGGLVQAGGSLRLSCAASGSTFRTNVMGWYRQAPGKERELVAAITKRGSITYYADSVKGRFTISRDNAKNTVYLQMNSLKPEDTAVYYCAARKVAVRGYGYWGQGTQVTVSS | high polyreactivity
26 | QVQLVESGGGLVQAGGSLRLSCAASGSTFRTYAMGWYRQAPGKERELVAAISGDTSTNYADSVKGRFTISRDNAKNTVYLQMNSLKPEDTAVYYCAAYWTTYATLWYDYWGQGTQVTVSS | low polyreactivity
27 | QVQLVESGGGLVQAGGSLRLSCAASGSTFRTYAMGWYRQAPGKERELVAAISRSGGSTYYADSVKGRFTISRDNAKNTFYLQMNSLKPEDTAVYYCAARGGRGWTPSDYWGQGTQVTVSS | high polyreactivity
28 | QVQLVESGGGLVQAGGSLRLSCAASGSTFRVYAMGWYRQAPGKERELVAAISGSGGSTYYADSVKGRFTISRDNAKNTVYLQMNSLKPEDTAVYYCAGRSWYTEYYWGQGTQVTVSS | high polyreactivity
29 | QVQLVESGGGLVQAGGSLRLSCAASGSTFRVYAMGWYRQAPGKERELVAAISWSAGSTYYADSVKGRFTISRDNAKNTVYLQMNSLKPEDTAVYYCNADPDRYDWYTYLYLADYWGQGTQVTVSS | low polyreactivity
30 | QVQLVESGGGLVQAGGSLRLSCAASGSTFRVYDMGWYRQAPGKERELVASLSYSVGSTYYADSVKGRFTISRDNAKNTVYLQMNSLKPEDTAVYYCAARPSYQPSSLARYDYWGQGTQVTVSS | low polyreactivity
31 | QVQLVESGGGLVQAGGSLRLSCAASGSTFRVYGMGWSRQAPGKERELVAVIRWRGGRTSYADSVKGRFTISRDYAKNTVYLQLNSLKPEDTAVYYCARQRSYGRSSYSYGYDYWGQGTQVTVSS | high polyreactivity
32 | QVQLVESGGGLVQAGGSLRLSCAASGSTFRWNAMGWYRQAPGKERELVAAISNGGSTNYADSVKGRFTISRDNAKNTVYLQMNSLIPEDTAVYYCATDGWYGQHYYDYDFDYYYWGQGTQVTVSS | low polyreactivity
33 | QVQLVESGGGLVQAGGSLRLSCAASGSTFRWYAMGWYRQAPGKERELVAAITSGGSTNYADSVKGRFTISRDNAKNTVYLQMNSLKPEDTAVYYCNKVYPVVRYEPQYDYWGQGTQVTVSS | low polyreactivity
34 | QVQLVESGGGLVQAGGSLRLSCAASGSTFRYNAMGWYRQAPGKARELVAAITSGGGTNYADSVKGRFTISRDNAKNTVYLQMNSLNPEDTAVYYCAAPWGLGSELLKRDYWGQGTQVTVSS | low polyreactivity
35 | QVQLVESGGGLVQAGGSLRLSCAASGSTFRYNAMGWYRQAPGKERELFAAISFSGGSTYYADSVKGRFTISRDNAKNTVYLQMNSLKPEDTAVYYCAARWSSWPSYLAVPRLYYWGQGTQVTVSS | high polyreactivity
36 | QVQLVESGGGLVQAGGSLRLSCAASGSTFRYNAMGWYRQAPGKERELVAAISRIGGTTYADSVKGRFTISRDNAKNTVYLQMNSLKPEDTAVYYCARANWGYYGPEYGYWGQGTQVTVSS | low polyreactivity
37 | QVQLVESGGGLVQAGGSLRLSCAASGSTFRYNAMGWYRQAPGKERELVAAITSGGRTTYADSVKGRFTISRDNAKNPVYLQMNSLKPEDTAVYYCAARRYGRNWHYDYWGHGTQVTVSS | high polyreactivity
38 | QVQLVESGGGLVQAGGSLRLSCAASGSTFRYNAMGWYRQAPGKERELVAAITSGGTTNYADSVKGRFTISRDNAKNTVYLQMNSLKPEDTAVYYCNAYVAYWGWVYRVDYWGQGTQVTVSS | low polyreactivity
39 | QVQLVESGGGLVQAGGSLRLSCAASGSTFRYNAMGWYRQAPGKERELVAGISYRGGTTYYADSVKGRFTISRDNAKNTVYLQMNSLKPEDTAVYYCAAAASSPGGWFYYWGQGTQVTVSS | high polyreactivity
40 | QVQLVESGGGLVQAGGSLRLSCAASGSTFRYYAMGWYRQAPGKERELVAAISGSGGRTYYADSVKGRFTISRDNAKNTVYLQMNSLKPEDTAVYYCAASRYQFYWGQGTQVTVSS | high polyreactivity
41 | QVQLVESGGGLVQAGGSLRLSCAASGSTFRYYAMGWYRQAPGKERELVAAISRSGGRTYYADSVKGRYTISRDYAKKTVYLQMNSLKPEDTAVYYCAVDIVSIRGYTYGYWGQGTQVTVSS | high polyreactivity
